± gives the standard deviation of the averaged measurements.
Tested on: ATP
Assay: switch fluorescence ratio, 500 uM ATP over buffer (Cy3 cluster intensity, sum of 5 cycles each) (fold (ratio)); higher = stronger signal-on switching upon ATP binding; sequences stand for … in TCGTCGGCAGCGTCAGATGTGTATAAGAGACAGTTTTTTTTTTTTTTTTTTTTTTTTT…TC
Conditions: aptamer strand: ATP DNA aptamer (quencher-CACCTGGGGGAGTATTGCGGAGGAAGG + anchor), 100 nM annealed; ATP concentration: 500 uM
Outline: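 Values give the fluorescence ratio for each switch-domain sequence, averaged from per-cluster ratios of summed target-cycle to summed buffer-cycle Cy3 intensity. The Cy3-labelled switching-strand clusters sat on a modified Illumina MiSeq flow-cell, were annealed to 100 nM quencher-labelled ATP aptamer, and were imaged in selection buffer, then after 15 min with 500 uM ATP at 22 °C. Five cycles ran with NaOH stripping and re-annealing between them, and clusters outside 100-1000 RFU were excluded.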
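Further: ATP exposure 15 min at 22 °C before imaging.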

| Sequence | switch fluorescence ratio |
| --- | --- |
| GCTTATACGA | 1.55 ± 0.012 |
| GCTTATCTAA | 0.997 ± 0.016 |
| GCTTATGCGG | 0.949 ± 0.014 |
| GCTTATGTAC | 1.16 ± 0.019 |
| GCTTCAGGGA | 1.02 ± 0.019 |
| GCTTCAGGTC | 1.05 ± 0.074 |
| GCTTCCTAAG | 1.139 ± 0.0072 |
| GCTTCCTCTA | 1.74 ± 1 |
| GCTTCGGAGG | 1.015 ± 0.0024 |
| GCTTCGGAGT | 1.059 ± 0.01 |
| GCTTCGGATC | 1.22 ± 0.038 |
| GCTTCTCTTA | 0.974 ± 0.013 |
| GCTTCTGGGT | 0.996 ± 0.017 |
| GCTTCTTGTT | 1 ± 0.015 |
| GCTTCTTTGT | 0.9984 ± 0.0058 |
| GCTTGAGGAA | 0.982 ± 0.034 |
| GCTTGAGGTA | 1.02 ± 0.054 |
| GCTTGAGTTA | 0.9852 ± 0.0077 |
| GCTTGATCCA | 1.01 ± 0.018 |
| GCTTGCAAAG | 1.007 ± 0.0031 |
| GCTTGCAAGG | 0.991 ± 0.017 |
| GCTTGCATTT | 1.02 ± 0.035 |
| GCTTGGATGT | 1.0207 ± 0.00092 |

| Sequence | switch fluorescence ratio |
| --- | --- |
| GCTTGGGCAG | 1.02 ± 0.045 |
| GCTTGGGGGA | 0.998 ± 0.041 |
| GCTTGGTCGT | 1.03 ± 0.024 |
| GCTTGTGATC | 1.01 ± 0.028 |
| GCTTTAAGGG | 0.995 ± 0.024 |
| GCTTTAATAA | 0.991 ± 0.077 |
| GCTTTACAGA | 1 ± 0.016 |
| GCTTTACTCA | 1.36 ± 0.049 |
| GCTTTAGGAT | 1.01 ± 0.04 |
| GCTTTAGTCA | 0.967 ± 0.034 |
| GCTTTATGTT | 0.9938 ± 0.0015 |
| GCTTTATTCC | 1.06 ± 0.018 |
| GCTTTGGCTT | 1 ± 0.03 |
| GCTTTGTATG | 0.9678 ± 0.0094 |
| GCTTTTAAAG | 1.04 ± 0.02 |
| GCTTTTATCA | 0.978 ± 0.01 |
| GCTTTTCAGC | 1.01 ± 0.038 |
| GCTTTTCGGG | 1.02 ± 0.02 |
| GCTTTTGAGG | 1.04 ± 0.012 |
| GCTTTTGGTG | 1.02 ± 0.032 |
| GCTTTTTATA | 1.02 ± 0.027 |
| GCTTTTTGCG | 1.01 ± 0.03 |
| GGAAAAAATG | 1 ± 0.048 |

| Sequence | switch fluorescence ratio |
| --- | --- |
| GGAAAACTGG | 1.01 ± 0.0017 |
| GGAAAAGTTG | 0.9848 ± 0.0083 |
| GGAAAATAGT | 1.02 ± 0.047 |
| GGAAAATTCT | 1.01 ± 0.013 |
| GGAAACTCTC | 1 ± 0.015 |
| GGAAAGGGGG | 1.01 ± 0.064 |
| GGAAAGTACG | 1.16 ± 0.045 |
| GGAAATATTA | 1.04 ± 0.04 |
| GGAAATTGAG | 0.999 ± 0.021 |
| GGAACCGGGT | 1.029 ± 0.0086 |
| GGAAGAGGGG | 0.991 ± 0.016 |
| GGAAGAGGGT | 0.997 ± 0.052 |
| GGAAGATGTT | 0.985 ± 0.014 |
| GGAAGCGACA | 0.988 ± 0.037 |
| GGAAGGAGGG | 1 ± 0.033 |
| GGAAGGCATA | 0.9829 ± 0.0096 |
| GGAAGGCCTA | 0.954 ± 0.017 |
| GGAAGGGATT | 1.05 ± 0.08 |
| GGAAGGGCGG | 1.01 ± 0.048 |
| GGAAGTAAAA | 1.03 ± 0.076 |
| GGAAGTCGGT | 0.968 ± 0.022 |
| GGAAGTCGTT | 0.994 ± 0.016 |
| GGAAGTTACA | 1.06 ± 0.016 |

| Sequence | switch fluorescence ratio |
| --- | --- |
| GGAATAATTT | 1.51 ± 0.73 |
| GGAATAGGAG | 1.037 ± 0.0095 |
| GGAATAGTAG | 1.003 ± 0.0065 |
| GGAATCAAGG | 1.02 ± 0.035 |
| GGAATCCGTA | 1.05 ± 0.046 |
| GGAATCTAGT | 0.999 ± 0.018 |
| GGAATGGGCG | 1.02 ± 0.042 |
| GGAATGGGTC | 0.9736 ± 0.0087 |
| GGAATGGTCG | 0.977 ± 0.13 |
| GGAATGTGCG | 0.9794 ± 0.0042 |
| GGAATGTTAG | 0.986 ± 0.012 |
| GGAATTACTG | 1.04 ± 0.033 |
| GGAATTGGGC | 1.03 ± 0.022 |
| GGAATTTCTG | 0.945 ± 0.014 |
| GGACAATTTT | 0.977 ± 0.0015 |
| GGACACTACC | 1.25 ± 0.036 |
| GGACAGAGTT | 0.9801 ± 0.0013 |
| GGACATTTAG | 1.03 ± 0.017 |
| GGACCATGAC | 1.14 ± 0.0075 |
| GGACCCAATG | 0.986 ± 0.011 |
| GGACCGCCTG | 1.01 ± 0.011 |
| GGACCTGGCG | 1.08 ± 0.15 |
| GGACGGGGGA | 1.02 ± 0.054 |

| Sequence | switch fluorescence ratio |
| --- | --- |
| GGACGTGTTG | 0.983 ± 0.033 |
| GGACTAGAGC | 1.01 ± 0.069 |
| GGACTAGGGA | 1.01 ± 0.018 |
| GGACTAGGTG | 1.16 ± 0.044 |
| GGACTCCCGG | 0.99 ± 0.011 |
| GGACTCGGGG | 1.04 ± 0.043 |
| GGACTGGAGC | 0.9905 ± 0.0021 |
| GGACTGGATG | 1 ± 0.031 |
| GGACTTAGGG | 0.9839 ± 0.0075 |
| GGACTTCTGG | 0.998 ± 0.041 |
| GGACTTGGTC | 0.972 ± 0.019 |
| GGAGAACCCT | 1.07 ± 0.038 |
| GGAGACATGT | 1.006 ± 0.0022 |
| GGAGACCGCT | 1.02 ± 0.034 |
| GGAGAGGGGT | 0.99 ± 0.035 |
| GGAGATAGGG | 1.03 ± 0.017 |
| GGAGATGCGG | 1.02 ± 0.011 |
| GGAGATTGCA | 1.058 ± 0.0089 |
| GGAGCCGGGC | 1.01 ± 0.013 |
| GGAGCGGGGT | 1.03 ± 0.019 |
| GGAGCTGTCG | 0.9774 ± 0.0094 |
| GGAGCTTTGG | 0.998 ± 0.035 |
| GGAGGAACAT | 1.02 ± 0.016 |

| Sequence | switch fluorescence ratio |
| --- | --- |
| GGAGGAAGTA | 1.03 ± 0.044 |
| GGAGGAAGTC | 0.975 ± 0.0024 |
| GGAGGACTTT | 0.9826 ± 0.0028 |
| GGAGGAGGCA | 0.997 ± 0.033 |
| GGAGGAGGTG | 1.02 ± 0.065 |
| GGAGGATACG | 1.02 ± 0.025 |
| GGAGGATGCT | 0.948 ± 0.053 |
| GGAGGGCTTT | 0.956 ± 0.064 |
| GGAGGGGCGG | 1.01 ± 0.043 |
| GGAGGGGGGG | 1.02 ± 0.042 |
| GGAGGGGTTA | 0.978 ± 0.015 |
| GGAGGGTTGT | 0.979 ± 0.04 |
| GGAGGGTTTT | 1.01 ± 0.035 |
| GGAGGTAGGG | 0.99915 ± 0.00057 |
| GGAGGTTGTG | 0.987 ± 0.017 |
| GGAGTAACAT | 1.04 ± 0.012 |
| GGAGTCATAC | 1.63 ± 0.035 |
| GGAGTTAATC | 1.04 ± 0.037 |
| GGAGTTAATT | 1.02 ± 0.013 |
| GGAGTTCCAG | 0.978 ± 0.048 |
| GGAGTTGGG | 0.968 ± 0.012 |
| GGAGTTTGGT | 1.01 ± 0.056 |
| GGATAACTCT | 1.01 ± 0.015 |

| Sequence | switch fluorescence ratio |
| --- | --- |
| GGATAAGGAA | 0.9698 ± 0.0076 |
| GGATAAGGCC | 1 ± 0.012 |
| GGATACGGGC | 1.02 ± 0.079 |
| GGATAGAGAA | 0.9789 ± 0.008 |
| GGATAGAGCT | 1 ± 0.034 |
| GGATAGAGTA | 1.01 ± 0.0075 |
| GGATAGGGCG | 0.946 ± 0.1 |
| GGATATGGGG | 0.99 ± 0.012 |
| GGATATTGCT | 0.949 ± 0.043 |
| GGATCCAAAT | 0.947 ± 0.017 |
| GGATCGAAGG | 0.96 ± 0.039 |
| GGATCGGGCG | 0.973 ± 0.051 |
| GGATCGTTGA | 0.977 ± 0.019 |
| GGATCTACCG | 1.01 ± 0.032 |
| GGATCTTTGA | 0.989 ± 0.027 |
| GGATGATGA | 1.01 ± 0.061 |
| GGATGATGGT | 0.985 ± 0.037 |
| GGATGCGGGT | 1 ± 0.03 |
| GGATGGAAGG | 0.963 ± 0.033 |
